# B1: ST6Gal 1 (Homo sapiens) (protein)
# chain: MIHTNLKKKFSCCVLVFLLFAVICVWKEKKKGSYYDSFKLQTKEFQVLKSLGKLAMGSDSQSVSSSSTQDPHRGRQTLGSLRGLAKAKPEASFQVWNKDSSSKNLIPRLQKIWKNYLSMNKYKVSYKGPGPGIKFSAEALRCHLRDHVNVSMVEVTDFPFNTSEWEGYLPKESIRTKAGPWGRCAVVSSAGSLKSSQLGREIDDHDAVLRFNGAPTANFQQDVGTKTTIRLMNSQLVTTEKRFLKDSLYNEGILIVWDPSVYHSDIPKWYQNPDYNFFNNYKTYRKLHPNQPFYILKPQMPWELWDILQEISPEEIQPNPPSSGMLGIIIMMTLCDQVDIYEFLPSKRKTDVCYYYQKFFDSACTMGAYHPLLYEKNLVKHLNQGTDEDIYLLGKATLPGFRTIHC
# notes: purchased R&D Systems
# Substrate: N[C@H]1C(O)O[C@H](CO)[C@@H](O[C@@H]2O[C@H](CO)[C@H](O)[C@H](O)[C@H]2O)[C@@H]1O
# Assay: Sialyltransferase activity of ST6Gal 1 assayed with CD73
# Format: biochemical, human
# Settings: other: acceptor varied, CMP-NeuAc fixed at 0.2 mM; pH 7.5
# Excerpt: The GDP-Fucose, UDP-Glucose, CMP-NeuAc, CMP, UDP and GDP used in the following experiments were obtained from Sigma-Aldrich (St Louis, Mo.). The recombinant human Fut7, ST6Gal1, CD73, CD39L3, non-specific alkaline phosphatase TNAP, recombinant Clostridium Difficile toxin B (TcdB) containing the glycosyltransferase domain and Malachite Green Phosphate Detection Kit were obtained from R&D Systems (Minneapolis, Minn.). The 3′-Sialyl-N-acetyllactosamine was obtained from V-LABS, Inc (Convington, La.). Unless otherwise specified, each glycosyltransferase reaction was performed in 50 μL of a buffer of 25 mM Tris, 150 mM NaCl, 5 mM MgCl2 and 5 mM MnCl2, at pH 7.5 in a 96-well plate at room temperature for 20 minutes. […] The plate was then read at 620 nm with a multi-well plate reader.
# Sialic acid is negatively charged under normal pH conditions, making sialyltransferases more difficult to assay than other glycosyltransferases. […] The results are shown in FIG. 7, and the specific activities against lactosamine and lactose were determined to be 458 and 41 pmol/min/μg respectively, confirming that the enzyme strongly favors lactosamine structure. The apparent Km and Vmax were determined for one substrate while fixing the other by fitting the data to KaleidaGraph 4 program.
protein,measurement,value
B1,Km,1800 ± 400 µM
same,Vmax,496 ± 38 pmol/min/µg

# — patent US9410182B2, “Phosphatase coupled glycosyltransferase assay” (Bio-Techne Corporation, priority 2010, dated 2016)
